# Experimental data: PMC5456370, “Bacterial co-expression of human Tau protein with protein kinase A and 14-3-3 for studies of 14-3-3/phospho-Tau interaction” (PLoS ONE, 2017)
# Molecular target: the molecule itself
# Assay: native gel or EMSA; purified 14-3-3 isoforms (14 μM per monomer) without or with PKA (2 μM) in 50 mM Hepes-NaOH pH 7.3, 10 mM NaCl, 4 mM MgCl2, 60 μM ATP, 2 h at 30°C; non-denaturing 15% gel, pH 8.6; dimer and monomer regions of the gel
row,Protein,binding result
1,"untagged human 14-3-3σ devoid of the C-terminal flexible peptide (residues 232-248) (domain or fragment, UniProt P31947 1-231, looked up, human 14-3-3 protein sigma, Uniprot P31947, residues 1-231 out of 248; also called 14-3-3σΔC; σΔC; source: purified (ammonium sulfate fractionation, anion-exchange and gel-filtration chromatography); also E. coli BL21(DE3), co-expressed with Tau and PKA, in lysate) MERASLIQKAKLAEQAERYEDMAAFMKGAVEKGEELSCEERNLLSVAYKNVVGGQRAAWRVLSSIEQKSNEEGSEEKGPEVREYREKVETELQGVCDTVLGLLDSHLIKEAGDAESRVFYLKMKGDYYRYLAEVATGDDKKRIIDSARSAYQEAMDISKKEMPPTNPIRLGLALNFSVFHYEIANSPEEAISLAKTTFDEAMADLHTLSEDSYKDSTLIMQLLRDNLTLWT",binds
2,"full-length human 14-3-3γ (natural protein, UniProt P61981 1-247, looked up, human 14-3-3 protein gamma, Uniprot P61981, full length) MVDREQLVQKARLAEQAERYDDMAAAMKNVTELNEPLSNEERNLLSVAYKNVVGARRSSWRVISSIEQKTSADGNEKKIEMVRAYREKIEKELEAVCQDVLSLLDNYLIKNCSETQYESKVFYLKMKGDYYRYLAEVATGEKRATVVESSEKAYSEAHEISKEHMQPTHPIRLGLALNYSVFYYEIQNAPEQACHLAKTAFDDAIAELDTLNEDSYKDSTLIMQLLRDNLTLWTSDQQDDDGGEGNN",binds
